Assay results from PMC8280106 (2021).

B1: extracellular domain of CD147 (CD147^ECD) [human] / Trefoil factor 3 (TFF3), recombinant mature form (residues 22-80) [human] (parent complex)
chain 1: AAGTVFTTVEDLGSKILLTCSLNDSATEVTGHRWLKGGVVLKEDALPGQKTEFKVDSDDQWGEYSCVFLPEPMGTANIQLHGPPRVKAVKSSEHINEGETAMLVCKSESVPPVTDWAWYKITDSEDKALMNGSESRFFVSSSQGRSELHIENLNMEADPGQYRCNGTSSKGSDQAIITLRVRSH
chain 2: EEYVGLSANQCAVPAKDRVDCGYPHVTPKECNNRGCCFDSRIPGVPWCFKPLQEAECTF

Variants of: B1
Experiment: SPR (Biacore); value read at end of injection, ~120 s; concentrations not given; read off a plot

Variant | response
chain 1 AAGTVFTTVEDLGSKILLTCSLNDSATEVTGHRWLKGGVVLKEDALPGQKTEFKVDSDDQWGEYSCVFLPEPMGTANIQLHGPPRVKAVKSSEHINEGEAAMLVCKSESVPPVTDWAWYKITDSEDKALMNGSESRFFVSSSQGRSELHIENLNMEADPGQYRCNGTSSKGSDQAIITLRVRSH [chain 1 T100A] | ~14 Ru
chain 1 R33A | ~2 Ru
chain 1 AAGTVFTTVEDLGSKILLTCSLNDSATEVTGHRWLKGGVVLKEDALPGQKTEFKVDSDDQWGEYSCVFLPEPMGTANIQLHGPPRVKAVKSSEHINEGETAMLVCKSESVPPVTDWAWYKITDSEDKALMNGSESRFFVSSSQGASELHIENLNMEADPGQYRCNGTSSKGSDQAIITLRVRSH [chain 1 R145A] | ~8.7 Ru
chain 1 AAGTVFTTVEDLGSKILLTCSLNDSATEVTGHRWLKGGVVLKEDALPGQKTEFKVDSDDQWGEYSCVFLPEPMATANIQLHGPPRVKAVKSSEHINEGETAMLVCKSESVPPVTDWAWYKITDSEDKALMNGSESRFFVSSSQGRSELHIENLNMEADPGQYRCNGTSSKGSDQAIITLRVRSH [chain 1 G74A] | ~4.3 Ru
chain 1 AAGTVFTTVEDLGSKILLTCSLNDSATEVTGHRWLKGGVVLKEDALPGQKTEFKVDSDDQWGEYSCVFLPEPMGTANIQLHGPPRVKAVKSSEHINEGETAMLVCKSESAPPVTDWAWYKITDSEDKALMNGSESRFFVSSSQGRSELHIENLNMEADPGQYRCNGTSSKGSDQAIITLRVRSH [chain 1 V110A] | ~4.7 Ru
